According to patent US20080199467A1 (published 2008):
Values belong to the binder of their own block, whether it stands above or below them.

Legend:
Test in all cases: saturation binding ELISA (immobilized ligand)
CML = molecular target: CML
S100b = molecular target: T1, S100b (UniProt P04271 2-92)
T1 chain: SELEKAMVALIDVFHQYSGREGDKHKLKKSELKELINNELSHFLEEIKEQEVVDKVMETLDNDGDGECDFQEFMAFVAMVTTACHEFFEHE

amphoterin = molecular target: T2, amphoterin (UniProt P09429 1-215)
T2 chain: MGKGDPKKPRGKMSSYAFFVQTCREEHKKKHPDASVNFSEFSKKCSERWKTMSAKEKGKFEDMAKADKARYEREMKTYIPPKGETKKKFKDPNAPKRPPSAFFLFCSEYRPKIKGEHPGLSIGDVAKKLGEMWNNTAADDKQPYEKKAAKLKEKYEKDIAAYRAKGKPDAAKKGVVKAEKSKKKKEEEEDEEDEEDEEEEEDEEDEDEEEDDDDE

Kd (CML): 75 nM
B1: TTP4000 (Fc fusion)
chain: QNITARIGEPLVLKCKGAPKKPPQRLEWKLNTGRTEAWKVLSPQGGGPWDSVARVLPNGSLFLPAVGIQDEGIFRCQAMNRNGKETKSNYRVRVYQIPGKPEIVDSASELTAGVPNKVGTCVSEGSYPAGTLSWHLDGKPLVPNEKGVSVKEQTRRHPETGLFTLQSELMVTPARGGDPRPTFSCSFSPGLPRHRALRTAPIQPRVWEPVPLEEVQLVVEPEGGAVAPPSVFLFPPKPKDTLMISRTPEVTCVVVDVSHEDPEVKFNWYVDGVEVHNAKTKPREEQYNSTYRVVSVLTVLHQDWLNGKEYKCKVSNKALPAPIEKTISKAKGQPREPQVYTLPPSRDELTKNQVSLTCLVKGFYPSDIAVEWESNGQPENNYKTTPPVLDSDGSFFLYSKLTVDKSRWQQGNVFSCSVMHEALHNHYTQKSLSLSPGK
modifications: N-terminal residue glutamine (Q) or pyroglutamic acid (pE) or a mixture thereof; glycosylation sites at N2 and N288 (numbering of the processed protein); C-terminal residue may be cleaved off

Kd (S100b): 77 nM
Kd (amphoterin): 40 nM
B2: RAGE fusion protein TTP-4000 (Fc fusion)
chain: B1 chain
modifications: N-terminal residue glutamine (Q) or pyroglutamic acid (pE) or a mixture thereof; glycosylation sites at N2 and N288 (numbering of the processed protein); C-terminal residue may be cleaved off
